Values quoted from earlier work, collected in article PMC3040723.

Molecular target: IscU (Escherichia coli) (UniProt P0ACD4)
Sequence (P0ACD4 whole entry): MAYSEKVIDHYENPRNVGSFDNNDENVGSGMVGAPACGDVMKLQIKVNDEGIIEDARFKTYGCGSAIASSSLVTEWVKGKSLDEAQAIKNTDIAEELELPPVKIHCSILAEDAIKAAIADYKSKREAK

Sequence of HscB (P0A6L9 whole entry): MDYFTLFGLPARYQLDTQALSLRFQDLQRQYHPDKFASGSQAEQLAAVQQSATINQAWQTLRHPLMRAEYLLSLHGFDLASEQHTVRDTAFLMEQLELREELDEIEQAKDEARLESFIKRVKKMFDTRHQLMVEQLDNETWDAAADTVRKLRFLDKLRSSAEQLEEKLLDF

HscB (from UniProt P0A6L9)
Kd: 13 µM
